IntAct's records for PubMed 26160948

B1: Insulin-induced gene 2 protein (Homo sapiens), Q9Y5U4 (parent)
chain: MAEGETESPGPKKCGPYISSVTSQSVNLMIRGVVLFFIGVFLALVLNLLQIQRNVTLFPPDVIASIFSSAWWVPPCCGTASAVIGLLYPCIDRHLGEPHKFKREWSSVMRCVAVFVGINHASAKVDFDNNIQLSLTLAALSIGLWWTFDRSRSGFGLGVGIAFLATVVTQLLVYNGVYQYTSPDFLYVRSWLPCIFFAGGITMGNIGRQLAMYECKVIAEKSHQE
partner: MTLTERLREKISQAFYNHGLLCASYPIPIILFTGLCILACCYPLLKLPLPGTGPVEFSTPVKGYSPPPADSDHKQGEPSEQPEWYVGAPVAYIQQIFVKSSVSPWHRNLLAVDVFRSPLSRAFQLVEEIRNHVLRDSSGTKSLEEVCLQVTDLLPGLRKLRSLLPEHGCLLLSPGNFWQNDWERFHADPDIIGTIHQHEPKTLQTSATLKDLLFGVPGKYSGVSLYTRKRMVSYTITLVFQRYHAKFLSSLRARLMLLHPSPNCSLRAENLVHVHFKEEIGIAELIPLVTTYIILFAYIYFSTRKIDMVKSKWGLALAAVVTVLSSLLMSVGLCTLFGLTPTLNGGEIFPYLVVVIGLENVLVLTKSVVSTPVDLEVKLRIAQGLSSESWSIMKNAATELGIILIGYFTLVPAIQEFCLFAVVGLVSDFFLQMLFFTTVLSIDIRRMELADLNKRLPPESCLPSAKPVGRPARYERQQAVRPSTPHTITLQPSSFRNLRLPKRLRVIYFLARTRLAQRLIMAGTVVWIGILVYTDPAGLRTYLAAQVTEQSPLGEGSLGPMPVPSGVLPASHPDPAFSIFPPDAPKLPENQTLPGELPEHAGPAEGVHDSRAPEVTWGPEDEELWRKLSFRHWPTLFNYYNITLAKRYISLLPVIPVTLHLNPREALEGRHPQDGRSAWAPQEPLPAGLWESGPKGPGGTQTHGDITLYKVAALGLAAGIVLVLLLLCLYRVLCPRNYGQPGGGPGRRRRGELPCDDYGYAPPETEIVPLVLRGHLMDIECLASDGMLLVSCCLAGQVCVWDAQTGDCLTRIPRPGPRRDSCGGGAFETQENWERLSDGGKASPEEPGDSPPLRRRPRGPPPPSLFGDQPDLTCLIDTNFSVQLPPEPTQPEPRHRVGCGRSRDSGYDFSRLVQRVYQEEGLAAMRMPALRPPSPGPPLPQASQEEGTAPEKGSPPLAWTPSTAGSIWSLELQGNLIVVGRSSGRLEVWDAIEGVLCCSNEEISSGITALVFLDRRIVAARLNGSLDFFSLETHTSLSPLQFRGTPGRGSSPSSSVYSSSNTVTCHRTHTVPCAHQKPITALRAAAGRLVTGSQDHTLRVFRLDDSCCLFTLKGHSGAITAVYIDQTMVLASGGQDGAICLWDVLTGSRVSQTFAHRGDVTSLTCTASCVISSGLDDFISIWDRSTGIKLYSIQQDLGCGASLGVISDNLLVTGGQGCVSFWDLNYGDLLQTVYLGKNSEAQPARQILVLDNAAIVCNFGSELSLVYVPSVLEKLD

Variants of: B1
Conditions: with scap_mouse Scap

effect of a mutation on the interaction	Variant
decreasing interaction strength	MAEGETESPGPKKCGPYISSVTSQSVNLMIRGVVLFFIGVFLALVLALLFIQRNVTLFPPDVIASIFSSAWWVPPCCGTASAVIGLLYPCIDRHLGEPHKFKREWSSVMRCVAVFVGIFHASAKVDFDNNIQLSLTLAALSIGLWWTFDRSRSGFGLGVGIAFLATVVTQLLVYNGVYQYTSPDFLYVRSWLPCIFFAGGITMGNIGRQLAMYECKVIAEKSHQE [N47A;Q50F;N119F]
disrupting interaction strength	MAEGETESPGPKKCGPYISSVTSQSVNLMIRGVVLFFIGVFLALVLNLLQIQRNVTLFPPDVIASIFSSAWWVPPCCGTASAVIGLLYPCIDRHLGEPHKFKREWSSVMRCVAVFVGINHASAKVDFDNNIQLSLTLAALSIGLWWTFARSRSGFGLGVGIAFLATVVTQLLVYNGVYQYTSPDFLYVRSWLPCIFFAGGITMGNIGRQLAMYECKVIAEKSHQE [D149A]
disrupting interaction strength	MAEGETESPGPKKCGPYISSVTSQSVNLMIRGVVLFFIGVFLALVLNLLQIQRNVTLFPPDVIASIFSSAWWVPPCCGTASAVIGLLYPCIDRHLGEPHKFKREWSSVMRCVWVFVGINHASAKVDFDNNIQLSLTLAALSIGLWWTFDRSRSGFGLGVGIAFLATVVTQLLVYNGVYQYTSPDFLYVRSWLPCIFFAGGITMGNIGRQLAMYECKVIAEKSHQE [A113W]
decreasing interaction strength	MAEGETESPGPKKCGPYISSVTSQSVNLMIRGVVLFFIGVFLALVLNLLQIQRNVTLFPPDVIASIFSSAWWVPPCCGTASAVIGLLYPCIDRHLGEPHKFKREWSSVMRCVAVFVGINHASAKVDFDNNIQLSLTLAALSIGLWWTFDRSRSGFGLGVGIAFLATVVTQLLVYNGVYQYTSPDFLYVRSWLPCIFFAGFITMGNIGRQLAMYECKVIAEKSHQE [G200F]
disrupting interaction strength	MAEGETESPGPKKCGPYISSVTSQSVNLMIRGVVLFFIGVFLALVLNLLQIQRNVTLFPPDVIASIFSSAWWVPPCCGTASAVIGLLYPCIDRHLGEPHKFKREWSSVMRCVAVFVGINHASAKVDFDNNIQLSLTLAALSIGLAWTFDRSRSGFGLGVGIAFLATVVTQLLVYNGVYQYTSPDFLYVRSWLPCIFFAGGITMGNIGRQLAMYECKVIAEKSHQE [W145A]
disrupting interaction strength	MAEGETESPGPKKCGPYISSVTSQSVNLMIRGVVLFFIGVFLALVLNLLQIQRNVTLFPPDVIASIFSSAWWVPPCCGTASAVIGLLYPCIDRHLGEPHKFKREWSSVMRCVAVFVGINFASAKVDFDNNIQLSLTLAALSIGLWWTFDRSRSGFGLGVGIAFLATVVTQLLVYNGVYQYTSPDFLYVRSWLPCIFFAGGITMGNIGRQLAMYECKVIAEKSHQE [H120F]
decreasing interaction strength	MAEGETESPGPKKCGPYISSVTSQSVNLMIRGVVLFFIGVFLALVLNLLQIQRNVTLFPPDVIASIFSSAWWVPPCCGTASAVIGLLYPCIDRHLGEPHKFKREWSSVMRCVAVFVGINHASAKVDFDNNIQLSLTLAALSIGLWWTFDRSRSGFGLGVGIAFLATVVTQLLVYNGVYQYTSPDFLYVRSWLPCIFFAGGITWGNIGRQLAMYECKVIAEKSHQE [M203W]
decreasing interaction strength	MAEGETESPGPKKCGPYISSVTSQSVNLMIRGVVLFFIGVFLALVLNLLQIQRNVTLFPPDVIASIFSSAWWVPPCCGTASAVIGLLYPCIDRHLGEPHKFKREWSSVMRCVAVFVFINHASAKVDFDNNIQLSLTLAALSIGLWWTFDRSRSGFGLGVGIAFLATVVTQLLVYNGVYQYTSPDFLYVRSWLPCIFFAGGITMGNIGRQLAMYECKVIAEKSHQE [G117F]
decreasing interaction strength	MAEGETESPGPKKCGPYISSVTSQSVNLMIRGVVLFFIGVFLALVLNLLQIQRNVTLFPPDVIASIFSSAWWVPPCCGTASAVIGLLYPCIDRHLGEPHKFKREWSSVMRCVAVFVGINHASAKVDFDNNIALSLTLAALSIGLWWTFDRSRSGFGLGVGIAFLATVVTQLLVYNGVYQYTSPDFLYVRSWLPCIFFAGGITMGNIGRQLAMYECKVIAEKSHQE [Q132A]
disrupting interaction strength	MAEGETESPGPKKCGPYISSVTSQSVNLMIRGVVLFFIGVFLALVLNLLQIQRNVTLFPPDVIASIFSSAWWVPPCCGTASAVIGLLYPCIDRHLGEPHKFKREWSSVMRCVAVAVGINHASAKVDFDNNIQLSLTLAALSIGLWWTFDRSRSGFGLGVGIAFLATVVTQLLVYNGVYQYTSPDFLYVRSWLPCIFFAGGITMGNIGRQLAMYECKVIAEKSHQE [F115A]
decreasing interaction strength	MAEGETESPGPKKCGPYISSVTSQSVNLMIRGVVLFFIFVFLALVLNLLQIQRNVTLFPPDVIASIFSSAWWVPPCCGTASAVIGLLYPCIDRHLGEPHKFKREWSSVMRCVAVFVGINHASAKVDFDNNIQLSLTLAALSIGLWWTFDRSRSGFGLGVGIAFLATVVTQLLVYNGVYQYTSPDFLYVRSWLPCIFFAGGITMGNIGRQLAMYECKVIAEKSHQE [G39F]
decreasing interaction strength	MAEGETESPGPKKCGPYISSVTSQSVNLMIRGVVLFFIGVFLALVLNLLQIQRNVTLFPPDVIASIFSSAWWVPPCDGTASAVIGLLYPCIDRHLGEPHKFKREWSSVMRCVAVFVGINHASAKVDFDNNIQLSLTLAALSIGLWWTFDRSRSGFGLGVGIAFLATVVTQLLVYNGVYQYTSPDFLYVRSWLPCIFFAGGITMGNIGRQLAMYECKVIAEKSHQE [C77D]
